Results published in patent US20170015742A1 (published 2017).
Substitutions are numbered along the chain they refer to.

B1: CODV012 cross-over DVD-Ig (PR-1571824) (bispecific antibody, human IgG1, kappa, L234A L235A)
heavy: EVQLVQSGSELKKPGASVKVSCKASGYTFTNYGMYWVRQAPGQGLEWMGWINTETGKPTYADDFKGRFVFSLDTSVSTAYLQISSLKAEDTAVYYCARTNYYYRSYIFYFDYWGQGTMVTVSSGGGGSGGGEFVLTQSPGTLSLSPGERATLSCERSSGDIGDSYVSWYQQKPGQAPRLVIYADDQRPSGIPDRFSGSGSGTDFTLTISRLEPEDFAVYYCQSYDINIDIVFGGGTKVEIKGGGSGASTKGPSVFPLAPSSKSTSGGTAALGCLVKDYFPEPVTVSWNSGALTSGVHTFPAVLQSSGLYSLSSVVTVPSSSLGTQTYICNVNHKPSNTKVDKKVEPKSCDKTHTCPPCPAPEAAGGPSVFLFPPKPKDTLMISRTPEVTCVVVDVSHEDPEVKFNWYVDGVEVHNAKTKPREEQYNSTYRVVSVLTVLHQDWLNGKEYKCKVSNKALPAPIEKTISKAKGQPREPQVYTLPPSREEMTKNQVSLTCLVKGFYPSDIAVEWESNGQPENNYKTTPPVLDSDGSFFLYSKLTVDKSRWQQGNVFSCSVMHEALHNAYTQKSLSLSPGK
light: EVTLRESGPALVKPTQTLTLTCTFSGFSLSTYGMGVGWIRQPPGKALEWLANIWWDDDKYYNPSLKNRLTISKDTSKNQVVLTMTNMDPVDTATYYCARIESIGTTYSFDYWGQGTMVTVSSGGGGSGGGDTVLTQSPATLSLSPGERATLSCRASESVSTHMHWYQQKPGQAPRLLIYGASNLESGVPARFSGSGSGTDFTLTISSLEPEDFAVYFCQQSWNDPFTFGQGTKLEIKGGGSGRTVAAPSVFIFPPSDEQLKSGTASVVCLLNNFYPREAKVQWKVDNALQSGNSQESVTEQDSKDSTYSLSSTLTLSKADYEKHKVYACEVTHQGLSSPVTKSFNRGEC
B2: CODV013 cross-over DVD-Ig (PR-1571825) (bispecific antibody, human IgG1, kappa, L234A L235A)
heavy: EVQLVQSGSELKKPGASVKVSCKASGYTFTNYGMYWVRQAPGQGLEWMGWINTETGKPTYADDFKGRFVFSLDTSVSTAYLQISSLKAEDTAVYYCARTNYYYRSYIFYFDYWGQGTMVTVSSGGGGSGGGEFVLTQSPGTLSLSPGERATLSCERSSGDIGDSYVSWYQQKPGQAPRLVIYADDQRPSGIPDRFSGSGSGTDFTLTISRLEPEDFAVYYCQSYDINIDIVFGGGTKVEIKGGSASTKGPSVFPLAPSSKSTSGGTAALGCLVKDYFPEPVTVSWNSGALTSGVHTFPAVLQSSGLYSLSSVVTVPSSSLGTQTYICNVNHKPSNTKVDKKVEPKSCDKTHTCPPCPAPEAAGGPSVFLFPPKPKDTLMISRTPEVTCVVVDVSHEDPEVKFNWYVDGVEVHNAKTKPREEQYNSTYRVVSVLTVLHQDWLNGKEYKCKVSNKALPAPIEKTISKAKGQPREPQVYTLPPSREEMTKNQVSLTCLVKGFYPSDIAVEWESNGQPENNYKTTPPVLDSDGSFFLYSKLTVDKSRWQQGNVFSCSVMHEALHNAYTQKSLSLSPGK
light: B1 light
B3: CODV014 cross-over DVD-Ig (PR-1571826) (bispecific antibody, human IgG1, kappa, L234A L235A)
heavy: EVQLVQSGSELKKPGASVKVSCKASGYTFTNYGMYWVRQAPGQGLEWMGWINTETGKPTYADDFKGRFVFSLDTSVSTAYLQISSLKAEDTAVYYCARTNYYYRSYIFYFDYWGQGTMVTVSSGGGGSEFVLTQSPGTLSLSPGERATLSCERSSGDIGDSYVSWYQQKPGQAPRLVIYADDQRPSGIPDRFSGSGSGTDFTLTISRLEPEDFAVYYCQSYDINIDIVFGGGTKVEIKGGSASTKGPSVFPLAPSSKSTSGGTAALGCLVKDYFPEPVTVSWNSGALTSGVHTFPAVLQSSGLYSLSSVVTVPSSSLGTQTYICNVNHKPSNTKVDKKVEPKSCDKTHTCPPCPAPEAAGGPSVFLFPPKPKDTLMISRTPEVTCVVVDVSHEDPEVKFNWYVDGVEVHNAKTKPREEQYNSTYRVVSVLTVLHQDWLNGKEYKCKVSNKALPAPIEKTISKAKGQPREPQVYTLPPSREEMTKNQVSLTCLVKGFYPSDIAVEWESNGQPENNYKTTPPVLDSDGSFFLYSKLTVDKSRWQQGNVFSCSVMHEALHNAYTQKSLSLSPGK
light: B1 light
B4: CODV021 cross-over DVD-Ig (PR-1577053) (bispecific antibody, human IgG1, kappa, L234A L235A)
heavy: B1 heavy with D163E
light: EVTLRESGPALVKPTQTLTLTCTFSGFSLSTYGMGVGWIRQPPGKALEWLANIWWDDDKYYNPSLKNRLTISKDTSKNQVVLTMTNMDPVDTATYYCARIESIGTTYSFDYWGQGTMVTVSSGGGGSGGGDTVLTQSPATLSLSPGERATLSCRASESVSTHMHWYQQKPGQAPRLLIYGASNLESGVPARFSGSGSGTDFTLTISSLEPEDFAVYFCQQSWNDPFTFGQGTKLEIKGGSRTVAAPSVFIFPPSDEQLKSGTASVVCLLNNFYPREAKVQWKVDNALQSGNSQESVTEQDSKDSTYSLSSTLTLSKADYEKHKVYACEVTHQGLSSPVTKSFNRGEC
B5: CODV022 cross-over DVD-Ig (PR-1577056) (bispecific antibody, human IgG1, kappa, L234A L235A)
heavy: B1 heavy with D163E
light: EVTLRESGPALVKPTQTLTLTCTFSGFSLSTYGMGVGWIRQPPGKALEWLANIWWDDDKYYNPSLKNRLTISKDTSKNQVVLTMTNMDPVDTATYYCARIESIGTTYSFDYWGQGTMVTVSSGGGGSDTVLTQSPATLSLSPGERATLSCRASESVSTHMHWYQQKPGQAPRLLIYGASNLESGVPARFSGSGSGTDFTLTISSLEPEDFAVYFCQQSWNDPFTFGQGTKLEIKGGSRTVAAPSVFIFPPSDEQLKSGTASVVCLLNNFYPREAKVQWKVDNALQSGNSQESVTEQDSKDSTYSLSSTLTLSKADYEKHKVYACEVTHQGLSSPVTKSFNRGEC
B6: CODV017 cross-over DVD-Ig (PR-1571830) (bispecific antibody, human IgG1, kappa, L234A L235A)
heavy: DTVLTQSPATLSLSPGERATLSCRASESVSTHMHWYQQKPGQAPRLLIYGASNLESGVPARFSGSGSGTDFTLTISSLEPEDFAVYFCQQSWNDPFTFGQGTKLEIKGGGSGGGEFVLTQSPGTLSLSPGERATLSCERSSGDIGDSYVSWYQQKPGQAPRLVIYADDQRPSGIPDRFSGSGSGTDFTLTISRLEPEDFAVYYCQSYDINIDIVFGGGTKVEIKGGGSGASTKGPSVFPLAPSSKSTSGGTAALGCLVKDYFPEPVTVSWNSGALTSGVHTFPAVLQSSGLYSLSSVVTVPSSSLGTQTYICNVNHKPSNTKVDKKVEPKSCDKTHTCPPCPAPEAAGGPSVFLFPPKPKDTLMISRTPEVTCVVVDVSHEDPEVKFNWYVDGVEVHNAKTKPREEQYNSTYRVVSVLTVLHQDWLNGKEYKCKVSNKALPAPIEKTISKAKGQPREPQVYTLPPSREEMTKNQVSLTCLVKGFYPSDIAVEWESNGQPENNYKTTPPVLDSDGSFFLYSKLTVDKSRWQQGNVFSCSVMHEALHNAYTQKSLSLSPGK
light: EVTLRESGPALVKPTQTLTLTCTFSGFSLSTYGMGVGWIRQPPGKALEWLANIWWDDDKYYNPSLKNRLTISKDTSKNQVVLTMTNMDPVDTATYYCARIESIGTTYSFDYWGQGTMVTVSSGEVQLVQSGSELKKPGASVKVSCKASGYTFTNYGMYWVRQAPGQGLEWMGWINTETGKPTYADDFKGRFVFSLDTSVSTAYLQISSLKAEDTAVYYCARTNYYYRSYIFYFDYWGQGTMVTVSSGGRTVAAPSVFIFPPSDEQLKSGTASVVCLLNNFYPREAKVQWKVDNALQSGNSQESVTEQDSKDSTYSLSSTLTLSKADYEKHKVYACEVTHQGLSSPVTKSFNRGEC
B7: CODV018 cross-over DVD-Ig (PR-1571831) (bispecific antibody, human IgG1, kappa, L234A L235A)
heavy: EFVLTQSPGTLSLSPGERATLSCERSSGDIGDSYVSWYQQKPGQAPRLVIYADDQRPSGIPDRFSGSGSGTDFTLTISRLEPEDFAVYYCQSYDINIDIVFGGGTKVEIKGGGSGGGDTVLTQSPATLSLSPGERATLSCRASESVSTHMHWYQQKPGQAPRLLIYGASNLESGVPARFSGSGSGTDFTLTISSLEPEDFAVYFCQQSWNDPFTFGQGTKLEIKGGGSGASTKGPSVFPLAPSSKSTSGGTAALGCLVKDYFPEPVTVSWNSGALTSGVHTFPAVLQSSGLYSLSSVVTVPSSSLGTQTYICNVNHKPSNTKVDKKVEPKSCDKTHTCPPCPAPEAAGGPSVFLFPPKPKDTLMISRTPEVTCVVVDVSHEDPEVKFNWYVDGVEVHNAKTKPREEQYNSTYRVVSVLTVLHQDWLNGKEYKCKVSNKALPAPIEKTISKAKGQPREPQVYTLPPSREEMTKNQVSLTCLVKGFYPSDIAVEWESNGQPENNYKTTPPVLDSDGSFFLYSKLTVDKSRWQQGNVFSCSVMHEALHNAYTQKSLSLSPGK
light: EVQLVQSGSELKKPGASVKVSCKASGYTFTNYGMYWVRQAPGQGLEWMGWINTETGKPTYADDFKGRFVFSLDTSVSTAYLQISSLKAEDTAVYYCARTNYYYRSYIFYFDYWGQGTMVTVSSGEVTLRESGPALVKPTQTLTLTCTFSGFSLSTYGMGVGWIRQPPGKALEWLANIWWDDDKYYNPSLKNRLTISKDTSKNQVVLTMTNMDPVDTATYYCARIESIGTTYSFDYWGQGTMVTVSSGGRTVAAPSVFIFPPSDEQLKSGTASVVCLLNNFYPREAKVQWKVDNALQSGNSQESVTEQDSKDSTYSLSSTLTLSKADYEKHKVYACEVTHQGLSSPVTKSFNRGEC
B8: DVD3904 DVD-Ig (PR-1565031) (bispecific antibody, human IgG1, kappa, L234A L235A)
heavy: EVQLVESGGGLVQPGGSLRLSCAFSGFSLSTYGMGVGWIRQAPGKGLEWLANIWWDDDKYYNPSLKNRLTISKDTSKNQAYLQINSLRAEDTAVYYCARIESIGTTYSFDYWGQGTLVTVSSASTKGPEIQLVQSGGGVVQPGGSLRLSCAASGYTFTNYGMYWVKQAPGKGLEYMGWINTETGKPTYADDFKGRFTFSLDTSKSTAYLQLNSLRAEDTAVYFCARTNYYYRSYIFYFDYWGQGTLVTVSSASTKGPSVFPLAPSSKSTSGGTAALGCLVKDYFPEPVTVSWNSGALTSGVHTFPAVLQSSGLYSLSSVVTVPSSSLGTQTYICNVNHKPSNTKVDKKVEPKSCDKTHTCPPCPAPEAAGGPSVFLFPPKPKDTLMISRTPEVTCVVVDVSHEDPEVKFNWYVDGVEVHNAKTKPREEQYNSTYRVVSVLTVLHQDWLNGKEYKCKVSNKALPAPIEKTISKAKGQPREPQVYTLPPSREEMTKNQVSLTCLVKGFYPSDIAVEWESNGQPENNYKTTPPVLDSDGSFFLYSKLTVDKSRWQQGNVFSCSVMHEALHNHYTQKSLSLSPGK
light: DFQLTQSPSSLSASVGDRVTITCERSSGDIGDSYVSWYQQKPGKAPKNVIYADDQRPSGVPSRFSGSGSGNSASLTISSLQPEDFATYFCQSYDINIDIVFGQGTKVEIKGTVAAPSVFIFPPDTVLTQSPSTLSASPGERATISCRASESVSTHMHWYQQKPGQAPKLLIYGASNLESGVPSRFSGSRSGTDFTLTISSLQPEDFAVYFCQQSWNDPFTFGQGTKVEIKRTVAAPSVFIFPPSDEQLKSGTASVVCLLNNFYPREAKVQWKVDNALQSGNSQESVTEQDSKDSTYSLSSTLTLSKADYEKHKVYACEVTHQGLSSPVTKSFNRGEC
B9: DVD3905 DVD-Ig (PR-1565032) (bispecific antibody, human IgG1, kappa, L234A L235A)
heavy: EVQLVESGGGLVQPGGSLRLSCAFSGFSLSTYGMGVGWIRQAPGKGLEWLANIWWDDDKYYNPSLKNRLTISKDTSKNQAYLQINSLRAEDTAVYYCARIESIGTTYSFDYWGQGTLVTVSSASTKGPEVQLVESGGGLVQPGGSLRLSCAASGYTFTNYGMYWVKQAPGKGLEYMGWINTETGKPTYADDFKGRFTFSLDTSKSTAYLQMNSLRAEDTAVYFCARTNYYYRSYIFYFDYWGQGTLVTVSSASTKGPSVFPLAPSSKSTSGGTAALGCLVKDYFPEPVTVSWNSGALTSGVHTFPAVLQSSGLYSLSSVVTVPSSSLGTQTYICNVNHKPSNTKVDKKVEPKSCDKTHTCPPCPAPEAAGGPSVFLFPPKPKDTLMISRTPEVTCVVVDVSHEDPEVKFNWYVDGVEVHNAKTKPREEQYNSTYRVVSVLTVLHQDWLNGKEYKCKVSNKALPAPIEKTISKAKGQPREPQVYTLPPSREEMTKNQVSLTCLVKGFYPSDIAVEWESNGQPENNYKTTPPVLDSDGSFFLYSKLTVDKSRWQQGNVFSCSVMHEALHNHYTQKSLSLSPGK
light: B8 light with V126Q, T133S, P138V, E140D, A142V, Q165K, R189G, V208T
B10: DVD3906 DVD-Ig (PR-1565035) (bispecific antibody, human IgG1, kappa, L234A L235A)
heavy: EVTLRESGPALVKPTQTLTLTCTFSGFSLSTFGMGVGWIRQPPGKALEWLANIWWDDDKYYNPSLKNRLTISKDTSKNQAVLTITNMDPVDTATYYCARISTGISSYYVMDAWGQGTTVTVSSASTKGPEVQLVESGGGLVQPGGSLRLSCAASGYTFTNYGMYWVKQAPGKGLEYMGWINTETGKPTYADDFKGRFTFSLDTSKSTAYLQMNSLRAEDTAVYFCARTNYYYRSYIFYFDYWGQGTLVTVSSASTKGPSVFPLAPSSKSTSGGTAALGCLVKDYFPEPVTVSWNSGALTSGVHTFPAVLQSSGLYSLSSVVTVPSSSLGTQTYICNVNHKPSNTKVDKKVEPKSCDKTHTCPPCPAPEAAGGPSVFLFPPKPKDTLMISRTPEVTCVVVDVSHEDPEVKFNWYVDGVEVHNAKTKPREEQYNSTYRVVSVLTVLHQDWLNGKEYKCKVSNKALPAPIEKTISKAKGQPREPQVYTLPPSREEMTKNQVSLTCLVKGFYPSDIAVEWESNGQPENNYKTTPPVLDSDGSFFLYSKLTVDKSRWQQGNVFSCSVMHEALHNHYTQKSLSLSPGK
light: DFQLTQSPSSLSASVGDRVTITCERSSGDIGDTYVSWYQQKPGKAPKNVIYGNDQRPSGVPSRFSGSGSGNSATLTISSLQPEDFATYFCQSYDSDIDIVFGQGTKVEIKGTVAAPSVFIFPPDTQLTQSPSSLSASVGDRVTISCRASESVSTHMHWYQQKPGKAPKLLIYGASNLESGVPSRFSGSGSGTDFTLTISSLQPEDFATYFCQQSWNDPFTFGQGTKVEIKRTVAAPSVFIFPPSDEQLKSGTASVVCLLNNFYPREAKVQWKVDNALQSGNSQESVTEQDSKDSTYSLSSTLTLSKADYEKHKVYACEVTHQGLSSPVTKSFNRGEC

Each binder was assayed against recombinant human PDGF-BB (human, UniProt P01127 82-190) (assay: cell-based or functional assay).
Sequence of recombinant human PDGF-BB (P01127 82-190 limits assumed): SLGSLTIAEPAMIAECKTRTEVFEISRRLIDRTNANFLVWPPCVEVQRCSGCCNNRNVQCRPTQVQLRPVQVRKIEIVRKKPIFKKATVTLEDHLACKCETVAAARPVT
In the case of B1, the “NIH-3T3 hPDGF-BB Potency IC50” value is reported as 0.182 nM.
B2 was tested, and the “NIH-3T3 hPDGF-BB Potency IC50” value was 0.11 nM.
In the case of B3, the “NIH-3T3 hPDGF-BB Potency IC50” value is reported as 0.469 nM.
For B4, the “NIH-3T3 hPDGF-BB Potency IC50” value was 0.056 nM.
With B5 the “NIH-3T3 hPDGF-BB Potency IC50” value was 0.059 nM.
For B6, the “NIH-3T3 hPDGF-BB Potency IC50” value was greater than 5 nM.
B7 was tested, and the “NIH-3T3 hPDGF-BB Potency IC50” value was greater than 5 nM.
B8 was tested, and the “NIH-3T3 hPDGF-BB Potency IC50” value was greater than 5 nM.
In the case of B9, the “NIH-3T3 hPDGF-BB Potency IC50” value is reported as greater than 5 nM.
In the case of B10, the “NIH-3T3 hPDGF-BB Potency IC50” value is reported as greater than 5 nM.
